This passage reports fold change of EC50 with Gas6 pre-incubation against without Gas6 and maximal binding in presence of Gas6 (% of binding in absence of Gas6) results from patent publication US20190030180A1.

For this assay, the target named is human AXL (full length) (human) (UniProt P30530). The assay can be described thus: flow cytometry; A431 cells pre-incubated with 10 µg/mL Gas6.
Sequence of UniProt P30530 (P30530 26-894 limits assumed): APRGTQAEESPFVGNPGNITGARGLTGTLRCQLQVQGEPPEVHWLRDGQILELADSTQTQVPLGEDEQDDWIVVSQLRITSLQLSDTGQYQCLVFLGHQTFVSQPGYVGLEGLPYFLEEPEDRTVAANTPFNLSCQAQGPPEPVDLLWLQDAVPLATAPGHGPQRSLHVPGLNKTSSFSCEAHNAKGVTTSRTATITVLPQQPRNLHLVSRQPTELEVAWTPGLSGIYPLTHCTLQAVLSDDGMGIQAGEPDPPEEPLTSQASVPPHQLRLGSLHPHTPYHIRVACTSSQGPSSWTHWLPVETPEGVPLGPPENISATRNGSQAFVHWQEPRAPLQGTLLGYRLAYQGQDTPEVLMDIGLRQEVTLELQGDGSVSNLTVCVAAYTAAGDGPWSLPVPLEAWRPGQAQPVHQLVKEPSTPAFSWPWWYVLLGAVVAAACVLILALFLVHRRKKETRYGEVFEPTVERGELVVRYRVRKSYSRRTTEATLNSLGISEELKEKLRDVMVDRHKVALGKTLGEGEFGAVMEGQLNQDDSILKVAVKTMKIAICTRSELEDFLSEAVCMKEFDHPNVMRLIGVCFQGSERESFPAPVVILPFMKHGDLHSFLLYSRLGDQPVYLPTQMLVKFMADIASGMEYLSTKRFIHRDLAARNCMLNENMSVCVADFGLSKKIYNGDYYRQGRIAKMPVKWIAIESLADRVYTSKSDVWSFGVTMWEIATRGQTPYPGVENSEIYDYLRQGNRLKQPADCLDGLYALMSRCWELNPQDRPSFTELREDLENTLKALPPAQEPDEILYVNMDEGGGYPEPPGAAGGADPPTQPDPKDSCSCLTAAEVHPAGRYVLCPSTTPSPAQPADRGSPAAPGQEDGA

B1: IgG1-YW327.6S2 (antibody, from another filing, V domains shown)
VH: EVQLVESGGGLVQPGGSLRLSCAASGFSLSGSWIHWVRQAPGKGLEWVGWINPYRGYAYYADSVKGRFTISADTSKNTAYLQMNSLRAEDTAVYYCAREYSGWGGSSVGYAMDYWGQGTLVTVSS
VL: DIQMTQSPSSLSASVGDRVTITCRASQDVSTAVAWYQQKPGKAPKLLIYSASFLYSGVPSRFSGSGSGTDFTLTISSLQPEDFATYYCQQSYTTPPTFGQGTKVEIK
With B1, the fold change of EC50 with Gas6 pre-incubation against without Gas6 stood at 21 fold and the maximal binding in presence of Gas6 (% of binding in absence of Gas6) was 19%.
